Laboratory results: US20060008846A1 (RESEARCH DEVELOPMENT FOUNDATION, published 2006)

T1: ALK4 (activin type I receptor) (UniProt P36896)
T1 sequence (looked up): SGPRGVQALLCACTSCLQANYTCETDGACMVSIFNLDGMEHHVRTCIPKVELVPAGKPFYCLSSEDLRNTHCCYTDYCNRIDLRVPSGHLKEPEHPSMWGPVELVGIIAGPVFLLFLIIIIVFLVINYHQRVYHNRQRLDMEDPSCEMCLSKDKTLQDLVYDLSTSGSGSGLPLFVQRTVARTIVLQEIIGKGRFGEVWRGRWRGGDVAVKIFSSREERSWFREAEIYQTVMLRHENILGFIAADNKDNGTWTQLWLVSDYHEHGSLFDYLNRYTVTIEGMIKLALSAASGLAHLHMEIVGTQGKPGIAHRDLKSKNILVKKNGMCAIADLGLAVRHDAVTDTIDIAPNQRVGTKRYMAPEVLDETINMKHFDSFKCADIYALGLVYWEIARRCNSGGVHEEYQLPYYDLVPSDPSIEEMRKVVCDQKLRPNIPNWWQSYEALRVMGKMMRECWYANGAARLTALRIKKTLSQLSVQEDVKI

T2: ALK4 (activin type I receptor) (UniProt P36896 24-505, limits assumed)
T2 sequence (looked up): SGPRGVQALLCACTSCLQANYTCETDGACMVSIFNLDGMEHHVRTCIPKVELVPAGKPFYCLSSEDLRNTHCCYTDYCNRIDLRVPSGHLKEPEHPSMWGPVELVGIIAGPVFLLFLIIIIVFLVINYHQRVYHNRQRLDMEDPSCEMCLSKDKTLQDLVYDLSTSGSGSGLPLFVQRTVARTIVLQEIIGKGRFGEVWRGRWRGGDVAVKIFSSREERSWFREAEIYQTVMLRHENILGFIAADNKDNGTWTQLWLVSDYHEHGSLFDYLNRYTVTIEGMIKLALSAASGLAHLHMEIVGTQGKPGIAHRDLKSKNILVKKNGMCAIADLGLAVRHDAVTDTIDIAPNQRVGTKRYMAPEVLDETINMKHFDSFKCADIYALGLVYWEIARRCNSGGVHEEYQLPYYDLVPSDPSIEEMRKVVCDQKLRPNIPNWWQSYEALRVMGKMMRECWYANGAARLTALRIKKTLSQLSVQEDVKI


Each binder was assayed against T1, ALK4 (activin type I receptor) (assay: cell-based or functional assay).

| Binder | % Activin Activity (A3-luciferase assay in 293T cells) (% of wild type activin-A) |
| --- | --- |
| activin-A S57A (ligand, human, UniProt P08476 311-426, looked up) GLECDGKVNICCKKQFFVSFKDIGWNDWIIAPSGYHANYCEGECPSHIAGTSGSSLAFHSTVINHYRMRGHSPFANLKSCCVPTKLRPMSMLYYDDGQNIIKKDIQNMIVEECGCS | 101 |
| activin-A T61P (ligand, human, UniProt P08476 311-426, looked up) GLECDGKVNICCKKQFFVSFKDIGWNDWIIAPSGYHANYCEGECPSHIAGTSGSSLSFHSPVINHYRMRGHSPFANLKSCCVPTKLRPMSMLYYDDGQNIIKKDIQNMIVEECGCS | 78 |
| A/C-2.1 chimeric activin A/activin C protein (ligand, human, UniProt P08476 311-426, looked up) GLECDGKVNICCKKQFFVSFKDIGWNDWIIAPSGYHANYCEGECPSHIAGTSGSSLSFHTAVLNHYRMRGHSPFANLKSCCVPTKLRPMSMLYYDDGQNIIKKDIQNMIVEECGCS | 81 |
| activin-A S52A/G53A/S54A (ligand, human, UniProt P08476 311-426, looked up) GLECDGKVNICCKKQFFVSFKDIGWNDWIIAPSGYHANYCEGECPSHIAGTAAASLSFHSTVINHYRMRGHSPFANLKSCCVPTKLRPMSMLYYDDGQNIIKKDIQNMIVEECGCS | 99 |
| activin-A S57P (ligand, human, UniProt P08476 311-426, looked up) GLECDGKVNICCKKQFFVSFKDIGWNDWIIAPSGYHANYCEGECPSHIAGTSGSSLPFHSTVINHYRMRGHSPFANLKSCCVPTKLRPMSMLYYDDGQNIIKKDIQNMIVEECGCS | 83 |
| activin-A H65A/M68A (ligand, human, UniProt P08476 311-426, looked up) GLECDGKVNICCKKQFFVSFKDIGWNDWIIAPSGYHANYCEGECPSHIAGTSGSSLSFHSTVINAYRARGHSPFANLKSCCVPTKLRPMSMLYYDDGQNIIKKDIQNMIVEECGCS | 82 |
| A/C-2.3 chimeric activin A/activin C protein (ligand, human, UniProt P08476 311-426, looked up) GLECDGKVNICCKKQFFVSFKDIGWNDWIIAPSGYHANYCEGECPSHIAGTSGSSLSFHSTVINHLKANTHSPFANLKSCCVPTKLRPMSMLYYDDGQNIIKKDIQNMIVEECGCS | 87 |
| activin-A V62A/I63A (ligand, human, UniProt P08476 311-426, looked up) GLECDGKVNICCKKQFFVSFKDIGWNDWIIAPSGYHANYCEGECPSHIAGTSGSSLSFHSTAANHYRMRGHSPFANLKSCCVPTKLRPMSMLYYDDGQNIIKKDIQNMIVEECGCS | 83 |
| A/C-2.2 chimeric activin A/activin C protein (ligand, human, UniProt P08476 311-426, looked up) GLECDGKVNICCKKQFFVSFKDIGWNDWIIAPSGYHANYCEGECPSHIAGTSGSSLSFHSTVLNLLKMRGHSPFANLKSCCVPTKLRPMSMLYYDDGQNIIKKDIQNMIVEECGCS | 107 |
| activin-A H59P (ligand, human, UniProt P08476 311-426, looked up) GLECDGKVNICCKKQFFVSFKDIGWNDWIIAPSGYHANYCEGECPSHIAGTSGSSLSFPSTVINHYRMRGHSPFANLKSCCVPTKLRPMSMLYYDDGQNIIKKDIQNMIVEECGCS | 85 |
| activin-A G50A/T51A (ligand, human, UniProt P08476 311-426, looked up) GLECDGKVNICCKKQFFVSFKDIGWNDWIIAPSGYHANYCEGECPSHIAAASGSSLSFHSTVINHYRMRGHSPFANLKSCCVPTKLRPMSMLYYDDGQNIIKKDIQNMIVEECGCS | 83 |
| activin-A M91A (ligand, human, UniProt P08476 311-426, looked up) GLECDGKVNICCKKQFFVSFKDIGWNDWIIAPSGYHANYCEGECPSHIAGTSGSSLSFHSTVINHYRMRGHSPFANLKSCCVPTKLRPMSALYYDDGQNIIKKDIQNMIVEECGCS | 74 |
| activin-A V62P (ligand, human, UniProt P08476 311-426, looked up) GLECDGKVNICCKKQFFVSFKDIGWNDWIIAPSGYHANYCEGECPSHIAGTSGSSLSFHSTPINHYRMRGHSPFANLKSCCVPTKLRPMSMLYYDDGQNIIKKDIQNMIVEECGCS | 64 |
| activin-A P45A/S46A/H47A/I48A (ligand, human, UniProt P08476 311-426, looked up) GLECDGKVNICCKKQFFVSFKDIGWNDWIIAPSGYHANYCEGECAAAAAGTSGSSLSFHSTVINHYRMRGHSPFANLKSCCVPTKLRPMSMLYYDDGQNIIKKDIQNMIVEECGCS | 91 |
| activin-A S90A (ligand, human, UniProt P08476 311-426, looked up) GLECDGKVNICCKKQFFVSFKDIGWNDWIIAPSGYHANYCEGECPSHIAGTSGSSLSFHSTVINHYRMRGHSPFANLKSCCVPTKLRPMAMLYYDDGQNIIKKDIQNMIVEECGCS | 59 |
| activin-A A31Q (ligand, human, UniProt P08476 311-426, looked up) GLECDGKVNICCKKQFFVSFKDIGWNDWIIQPSGYHANYCEGECPSHIAGTSGSSLSFHSTVINHYRMRGHSPFANLKSCCVPTKLRPMSMLYYDDGQNIIKKDIQNMIVEECGCS | 84 |
| activin-A A49G (ligand, human, UniProt P08476 311-426, looked up) GLECDGKVNICCKKQFFVSFKDIGWNDWIIAPSGYHANYCEGECPSHIGGTSGSSLSFHSTVINHYRMRGHSPFANLKSCCVPTKLRPMSMLYYDDGQNIIKKDIQNMIVEECGCS | 82 |
| activin-A L92A (ligand, human, UniProt P08476 311-426, looked up) GLECDGKVNICCKKQFFVSFKDIGWNDWIIAPSGYHANYCEGECPSHIAGTSGSSLSFHSTVINHYRMRGHSPFANLKSCCVPTKLRPMSMAYYDDGQNIIKKDIQNMIVEECGCS | 35 |
| activin-A R69A/G70A/H71A (ligand, human, UniProt P08476 311-426, looked up) GLECDGKVNICCKKQFFVSFKDIGWNDWIIAPSGYHANYCEGECPSHIAGTSGSSLSFHSTVINHYRMAAASPFANLKSCCVPTKLRPMSMLYYDDGQNIIKKDIQNMIVEECGCS | 82 |
| activin-A N76A/L77A/K78A/S79A (ligand, human, UniProt P08476 311-426, looked up) GLECDGKVNICCKKQFFVSFKDIGWNDWIIAPSGYHANYCEGECPSHIAGTSGSSLSFHSTVINHYRMRGHSPFAAAAACCVPTKLRPMSMLYYDDGQNIIKKDIQNMIVEECGCS | 82 |
| A/C-2.4 chimeric activin A/activin C protein (ligand, human, UniProt P08476 311-426, looked up) GLECDGKVNICCKKQFFVSFKDIGWNDWIIAPSGYHANYCEGECPSHIAGTSGSSLSFHSTVINHYRANTAAPFANLKSCCVPTKLRPMSMLYYDDGQNIIKKDIQNMIVEECGCS | 79 |
| A/C-1 chimeric activin A/activin C protein (ligand, human, UniProt P08476 311-426, looked up) GLECDGKVNICCKKQFFVSFKDIGWNDWIIAPSGYHANYCEGECPLHIAGMPGIAASFHSTVINHYRMRGHSPFANLKSCCVPTKLRPMSMLYYDDGQNIIKKDIQNMIVEECGCS | 104 |
| activin-A F58A/H59A (ligand, human, UniProt P08476 311-426, looked up) GLECDGKVNICCKKQFFVSFKDIGWNDWIIAPSGYHANYCEGECPSHIAGTSGSSLSAASTVINHYRMRGHSPFANLKSCCVPTKLRPMSMLYYDDGQNIIKKDIQNMIVEECGCS | 126 |
| activin-A S55A/L56A (ligand, human, UniProt P08476 311-426, looked up) GLECDGKVNICCKKQFFVSFKDIGWNDWIIAPSGYHANYCEGECPSHIAGTSGSAASFHSTVINHYRMRGHSPFANLKSCCVPTKLRPMSMLYYDDGQNIIKKDIQNMIVEECGCS | 101 |
| activin-A S60A/T61A (ligand, human, UniProt P08476 311-426, looked up) GLECDGKVNICCKKQFFVSFKDIGWNDWIIAPSGYHANYCEGECPSHIAGTSGSSLSFHAAVINHYRMRGHSPFANLKSCCVPTKLRPMSMLYYDDGQNIIKKDIQNMIVEECGCS | 97 |
| activin-A I105A (ligand, human, UniProt P08476 311-426, looked up) GLECDGKVNICCKKQFFVSFKDIGWNDWIIAPSGYHANYCEGECPSHIAGTSGSSLSFHSTVINHYRMRGHSPFANLKSCCVPTKLRPMSMLYYDDGQNIIKKDAQNMIVEECGCS | 86 |
| activin-A W25A (ligand, human, UniProt P08476 311-426, looked up) GLECDGKVNICCKKQFFVSFKDIGANDWIIAPSGYHANYCEGECPSHIAGTSGSSLSFHSTVINHYRMRGHSPFANLKSCCVPTKLRPMSMLYYDDGQNIIKKDIQNMIVEECGCS | 73 |
| activin-A Y35A (ligand, human, UniProt P08476 311-426, looked up) GLECDGKVNICCKKQFFVSFKDIGWNDWIIAPSGAHANYCEGECPSHIAGTSGSSLSFHSTVINHYRMRGHSPFANLKSCCVPTKLRPMSMLYYDDGQNIIKKDIQNMIVEECGCS | 101 |

These binders were tested against T2, ALK4 (activin type I receptor) (assay: cell-based or functional assay).

| Binder | % Activin Activity (A3-luciferase assay in 293T cells) |
| --- | --- |
| A/C-2 chimeric activin A/activin C protein (ligand, human, UniProt P08476 311-426, looked up) GLECDGKVNICCKKQFFVSFKDIGWNDWIIAPSGYHANYCEGECPSHIAGTSGSSLSFHTAVLNLLKANTAAPFANLKSCCVPTKLRPMSMLYYDDGQNIIKKDIQNMIVEECGCS | 17 % of wild type activin-A |
